Laboratory results reported in patent publication CN106565845A.

Assays:
[1] = target: human uPAR on SW480 cells (人结肠癌细胞) (human) (UniProt Q03405); test: flow cytometry on SW480 cells, antibody at 5 μg/ml, FITC goat anti-human IgG
[2] = target: 重组人uPAR蛋白 (recombinant human uPAR protein, uPAR-ECD) (human) (UniProt Q03405); test: ELISA, plate coated with uPAR-ECD (2 ng/μl), antibody at 0.125 μg/ml, goat anti-human IgG-HRP
[3] = target: 重组人uPAR蛋白 (recombinant human uPAR protein, uPAR-ECD) (human) (UniProt Q03405); test: ELISA, plate coated with uPAR-ECD (2 ng/μl), antibody at 0.0625 μg/ml, goat anti-human IgG-HRP

B1: H5L5抗体 (humanized anti-uPAR antibody H5L5) (antibody, human IgG1, kappa, V domains shown)
VH: EVQLVQSGAEVKKPGATVKISCKASGYTFSDFYIHWVRQAPGKGLEWMGWIFHGSDNTEYNEKFRGRVTITADTSTDTGYLELSSLRSEDTAVYYCARWGPHWYFDVWGQGTLVSVSS
VL: MIQMTQSPSSVSASVGDRVTITCRASQDVSYMAWYQQKPGKAPKPWIFEISTLQSGVPSRFSGSGSGTDYSLTINSLQPEDFATYYCQQWNYPFTFGGGTKVEIKR
平均荧光强度 (MFI) [1]: 3.17
阳性率 (percent positive cells) [1]: 99.2%
OD450 [2]: 1.86 OD450
OD450 [3]: 1.42 OD450
